Measured values as given in US7105305.

Molecular target: type B human PDGF receptor (B-hPDGF-R) on transfected CHO cells (CHO-HR5) (human) (UniProt P09619)
Assay: whole-cell 125I-PDGF binding, 37 C for 45 min, Ficoll gradient; non-specific binding taken from CHO cells

Sequence of type B human PDGF receptor (B-hPDGF-R) on transfected CHO cells (CHO-HR5) (human) (P09619 33-1106 E241D): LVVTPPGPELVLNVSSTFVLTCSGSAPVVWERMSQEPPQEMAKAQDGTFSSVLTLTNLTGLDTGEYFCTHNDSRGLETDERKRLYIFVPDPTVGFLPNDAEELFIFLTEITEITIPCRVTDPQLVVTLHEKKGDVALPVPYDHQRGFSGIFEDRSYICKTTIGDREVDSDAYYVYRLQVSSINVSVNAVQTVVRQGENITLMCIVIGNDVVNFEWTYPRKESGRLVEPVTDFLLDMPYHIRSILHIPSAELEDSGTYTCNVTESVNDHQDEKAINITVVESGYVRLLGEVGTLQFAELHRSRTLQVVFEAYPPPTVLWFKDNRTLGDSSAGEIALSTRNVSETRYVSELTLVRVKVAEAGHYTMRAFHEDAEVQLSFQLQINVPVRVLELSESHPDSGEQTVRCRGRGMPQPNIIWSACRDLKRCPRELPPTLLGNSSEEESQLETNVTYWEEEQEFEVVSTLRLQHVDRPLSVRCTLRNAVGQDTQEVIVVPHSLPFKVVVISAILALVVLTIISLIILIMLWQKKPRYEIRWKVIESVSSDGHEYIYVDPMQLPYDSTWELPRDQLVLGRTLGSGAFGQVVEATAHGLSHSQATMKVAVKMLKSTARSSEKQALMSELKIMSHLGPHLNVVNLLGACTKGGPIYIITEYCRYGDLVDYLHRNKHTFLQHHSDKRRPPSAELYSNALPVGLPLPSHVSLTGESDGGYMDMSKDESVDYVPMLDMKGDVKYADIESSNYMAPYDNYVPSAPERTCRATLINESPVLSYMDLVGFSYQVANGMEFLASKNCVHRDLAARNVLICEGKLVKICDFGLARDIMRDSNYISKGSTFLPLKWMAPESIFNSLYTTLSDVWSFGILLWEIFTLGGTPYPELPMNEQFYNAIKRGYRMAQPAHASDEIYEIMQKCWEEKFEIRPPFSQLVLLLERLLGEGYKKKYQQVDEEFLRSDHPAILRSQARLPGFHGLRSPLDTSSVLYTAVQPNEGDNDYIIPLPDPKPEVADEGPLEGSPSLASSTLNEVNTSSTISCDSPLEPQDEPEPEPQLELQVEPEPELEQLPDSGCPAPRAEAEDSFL

- non-specific binding as percent of the bound radioactivity: 25 percent
Substance: ^125I-labeled PDGF (ligand)
